Results reported in the supplement of paper PMC12042874.
± gives the uncertainty stated by the source.

Test: amyloid nucleation score (Sup35N fusion, yeast selection) (log enrichment); library NNK3; higher = more nucleation; inactive = no reads after selection
Method in brief: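 The nucleation score is a DiMSum log enrichment of output over input reads, centred on the mode score of non-aggregating sequences. Sequences under 100 input reads were excluded, and reads came from Illumina sequencing of plasmid inserts. Psi-negative yeast expressing Sup35N fused to peptides of 20 random codons were induced with 100 μM copper sulfate for 24 hours and grown 7 days at 30°C on medium lacking adenine and uracil. Random libraries had three technical output replicates.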

Substance	amyloid nucleation score
PCLSDPSYIELNKLASVFTG	inactive
PCSYLCSRVFIIC	inactive
PCTMDESRYLVMYFHFPMSV	inactive
PCYDWCLQSGR	inactive
PDAHTKMT	0.603 ± 0.27
PDDKLM	inactive
PDVDLTTMLNNNMNYMYVKI	inactive
PDVNVRGGGQLVV	inactive
PEGVSGIAE	inactive
PERWSMPYIPSDLYKCLLNQ	inactive
PFAST	inactive
PFGPHYNPTM	inactive
PFLPAANNCVKQRCCFSGAL	inactive
PFNPSYIFRLLYL	inactive
PFPGRTLKWNLYTSQFFMAG	inactive
PFPHKDQYHGGGKWPDE	inactive
PFSFKLPR	inactive
PFSRTERRFYK	-0.463 ± 1.7
PFWVTVYMDILLVKQQPLSV	inactive
PGFSLFLGLRSVWKHFFCFR	inactive
PGNNFKNAAESFRKAYMCRR	inactive
PGYGS	inactive
PHMSLKTFSDS	inactive

Substance	amyloid nucleation score
PHVLVESLW	inactive
PIFHGD	inactive
PIIHGCDDLRDFFIARICIS	inactive
PISLCSWATRFCSYFDKHKL	inactive
PITDNHFG	-0.697 ± 1.4
PIVEYVFTPMF	inactive
PIWTHFRGPCGVEAIRETRV	inactive
PKFYH	inactive
PKGEGIMISLFLDCTRLVNG	2.11 ± 0.077
PKIAGFSGGTCTVA	inactive
PKQSIDCCHNWGDGNCFIVV	inactive
PKSFWVLSPIDLVIVVQVRQ	inactive
PKSLLVPIIRPMQVWRKFDL	inactive
PLCATFKDTNRNNTVYRSLF	inactive
PLCNCVNRENSDGMMWGYRE	inactive
PLDSECEKDGHDTPYDYVVL	inactive
PLEVLAKFFWDDWATHSMDL	inactive
PLEWNNGVYISGWLWVLVSW	-0.518 ± 0.63
PLFGRCHRWGVTMQYSLLIG	inactive
PLLFSRVSLDL	inactive
PLRLCNPLSGFVPLLFTAFR	inactive
PLSFIKRRFRRLAGLSRSSA	inactive
PLSMSHVGAGLKF	inactive

Substance	amyloid nucleation score
PLSPFYAAWDYMILCVG	inactive
PLVMGFIRVHCIFRRRFG	inactive
PLWHTWFGYAE	0.494 ± 0.24
PNAEGFFSVSGFCVVLNQSM	1.34 ± 0.087
PNHYSYQCALLKRSTEFRHA	inactive
PNHYWFVAQFWLFSLTACHR	0.02 ± 0.77
PNRFNIIHVKFRFSFYATLT	inactive
PPLPRFSLSFGRWLFLICHE	inactive
PQDQDDVKVLSRGVRYVWGH	inactive
PRCISSPRSPSLNVWVLKSE	inactive
PRIWLVAFQTKTCYPSGGWL	-1.47 ± 1.9
PRPLGLFTSYDNGLGYRQGQ	inactive
PRPWRL	inactive
PRWLPVDGYEDSGVVEDKES	inactive
PRYAVALSLD	inactive
PSFFRKLFLPFASYLTMCGE	inactive
PSFLNSMGS	inactive
PSLQRSQRVSEFRTM	inactive
PSMKL	inactive
PSMSADGADLSGCQLIMVLS	inactive
PSTDSINDV	inactive
PSYEAASK	inactive
PTAVVVGYHSYVTFRAVKCV	inactive

Substance	amyloid nucleation score
PTEVYEATYCHFTNLL	inactive
PTFFTSVLGFNYRVLYRIAV	inactive
PTIQQDWIAFYIHSCEFLVL	inactive
PTIYRMFGVGQMVMN	inactive
PTLILWDFCCLVLVEAFYGC	inactive
PTNDAYVVVMD	inactive
PTTFNVFLGLWCVGTYCTWL	0.997 ± 0.24
PVLSIYWTGPLKFNYIMMGL	inactive
PVNEFYYLFCKRVYPCALQI	0.295 ± 0.53
PVRSPAACGDRLSVRVANME	inactive
PVTIFKETCWP	inactive
PVVRQRNALILCLSHMSCLE	2.15 ± 0.063
PVWFTYQHHCWVKLICV	inactive
PWDDYTAQIGLYSFPPWLYV	inactive
PWDQDGGSTYSKGGPSNWEF	inactive
PYPESVFQWFEYIPFYCSVR	inactive
PYSISRLTSYDPFGHVPGTR	inactive
PYSLPSP	inactive
PYTWAMHLNLLITTDR	-0.032 ± 0.54
QALTFIMWETDTSHGTCLNG	1.46 ± 0.07
QDPMLTCGGRWDFTCAGEVP	inactive
QEGWCWSYLVAGGWV	inactive
QELMEKDGRASKDQAWASIV	inactive

Substance	amyloid nucleation score
QFDFVLPVGYVFGDGYVLWV	inactive
QFLLGSWYRLLRSGTVNSPS	inactive
QFLLGWNPNTSDLVLTFVQQ	1.15 ± 0.14
QFPSSQN	inactive
QFTHTNIFTND	inactive
QGGGNIDSSVVTDSSDVVYS	inactive
QGGGVCPCPKMVSFQMMYVI	inactive
QGNAVHRDASSGWMNSAFDR	inactive
QHSLGG	inactive
QIGFCS	inactive
QIIYISSLFTYDSYYKFRLH	inactive
QILVLHIR	1.71 ± 0.079
QINMYMVNSRWVTFGIGMLS	2.37 ± 0.055
QIVRLTSNIPRTAPSWSFH	inactive
QIVYSLILGDPPAASVWEKS	inactive
QKMFVQDLILVLPVISRLV	inactive
QLALPHKPHWGNWL	inactive
QLIWYTACKASIDVNRHGSG	inactive
QLKHWTEIKQVLVVSREWVH	-0.395 ± 1.3
QLLFPGLWESATRILCENFM	inactive
QLLHDGNLNVGIFMRYSQGR	1.29 ± 0.093
QLLSLKWYYVTRILCARYAD	inactive
QLLSLVKISNKLTVI	inactive

Substance	amyloid nucleation score
QMVIHTVLGLKSLCVMFPSR	1.04 ± 0.088
QNCVTDMSKNLGIVREFSCS	inactive
QNECLGHQNWLNVVLKVAMM	inactive
QNNTLGVSLVTFRGLVE	inactive
QPAFPWTYVFLLYHGW	inactive
QPVICNIRSSRCV	inactive
QPYIVFISGFVSSLWESVRK	inactive
QQFVTFVIFKYTVSVAMGAG	-0.478 ± 0.88
QQWWLLFSLC	inactive
QRDTSGEYGIVWYYVFNRTG	inactive
QRITDKMSYADSLLRSST	inactive
QRLIRMSFSMAHMTSNFVMV	inactive
QRSTKPW	-0.586 ± 1.9
QSASFRNGFKLLLMTS	inactive
QSCCF	inactive
QSGTLLGLLHQANYLGYAF	inactive
QSLLDLMSFLMCV	inactive
QSRPKMMFLDSGCFWGFCVR	inactive
QSSIVWCVSFIKSRCDFSIC	inactive
QSVSVGLCCWAMPVK	inactive
QTHSMGDSECYL	inactive
QTLNERTWTGYDIHVRHVRR	inactive
QTMKWSIVHGQKTGGSWVDM	inactive

Substance	amyloid nucleation score
QTQKLFQYI	inactive
QTRVTVYSWVPRDYFSQHED	inactive
QTSST	inactive
QTSSTNPMVASKPQAQRACK	inactive
QTVKVISPYPTMLTLCD	inactive
QTVNWSDDL	inactive
QTYMTLHETVRLWARMLSC	inactive
QVFLSKVCMLFDVVARVVKR	inactive
QVGQESDSCLSSIRLCFKYR	0.163 ± 0.24
QVKLGRTLTSGQGFTQLHSV	-0.852 ± 2.5
QVLLCNAPFRQLYVACFYCF	0.422 ± 0.38
QVLWTGEMDSMICWA	inactive
QWGGSNIVRYRNFIVGLFVR	inactive
QWVVEHRFWLVYNGEHRNSY	0.762 ± 0.15
QYFSWKIRSGNLVYAF	inactive
QYICHDNCRCCQRNEKFRRK	inactive
QYRRRVYDYVGCTRLWKNLW	-0.682 ± 0.93
RAALPMVFHRFLTFMDAFLV	1.83 ± 0.075
RAEMMSYTLVQIIGYISIVE	inactive
RAFFDC	-0.47 ± 0.66
RARALLAHLKVPSKPVFTAV	inactive
